Measured values as given in patent publication US20170312350A1 (IMMATICS BIOTECHNOLOGIES, published 2017).

Target: MHC/IGF2BP3-001 complex on IGF2BP3-001-loaded target cells (human)
Assay: cell-based or functional assay

B1: TCR R10P1A7 (TCR, V domains shown)
V domain 1: GEDVEQSLFLSVREGDSSVINCTYTDSSSTYLYWYKQEPGAGLQLLTYIFSNMDMKQDQRLTVLLNKKDKHLSLRIADTQTGDSAIYFCAESKETRLMFGDGTQLVVKP
V domain 2: GAVVSQHPSWVICKSGTSVKIECRSLDFQATTMFWYRQFPKQSLMLMATSNEGSKATYEQGVEKDKFLINHASLTLSTLTVTSAHPEDSSFYICSARAGGHEQFFGPGTRLTVLE
EC50 (target peptide titration, IFNγ release): ~1 nM
